These results are taken from patent US20210221894A1 (DRAGONFLY THERAPEUTICS, published 2021).

For orientation: EC50 (read off the curve) means the concentration needed to bring the measured effect to its halfway point.

For experiment [1], the target named is T1, recombinant cynomolgus NKG2D-Fc fusion protein (cynomolgus; human, UniProt P61252 73-216).
T1 construct: extracellular domain; not shown: human IgG1 Fc domain
T1 sequence (looked up): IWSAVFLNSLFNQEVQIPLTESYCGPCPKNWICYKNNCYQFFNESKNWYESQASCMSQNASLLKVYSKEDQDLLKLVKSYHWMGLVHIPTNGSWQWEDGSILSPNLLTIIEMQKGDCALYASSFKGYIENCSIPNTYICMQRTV
Put plainly: ELISA, plate-bound recombinant cynomolgus NKG2D-Fc, anti-human kappa-HRP/TMB. The source says: (§1) The nucleic acid sequences of human, mouse or cynomolgus NKG2D ectodomains were fused with nucleic acid sequences encoding human IgG1 Fc domains and introduced into mammalian cells to be expressed. After purification, NKG2D-Fc fusion proteins were adsorbed to wells of microplates. After blocking the wells with bovine serum albumin to prevent non-specific binding, NKG2D-binding domains were titrated and added to the wells pre-adsorbed with NKG2D-Fc fusion proteins. Primary antibody binding was detected using a secondary antibody which was conjugated to horseradish peroxidase and specifically recognizes a human kappa light chain to avoid Fc cross-reactivity. 3,3′,5,5′-Tetramethylbenzidine (TMB), a substrate for horseradish peroxidase, was added to the wells to visualize the binding signal, whose absorbance was measured at 450 nm and corrected at […]. An NKG2D-binding domain clone, an isotype control or a positive control (comprising heavy chain and light chain variable domains selected from SEQ ID NOs:101-104, or anti-mouse NKG2D clones MI-6 and CX-5, eBioscience, San Diego, Calif.) was added to each well.

The target in experiment [2] is T2, recombinant mouse NKG2D-Fc fusion protein (mouse; human, UniProt O54709 90-232).
T2 construct: extracellular domain; also called Mouse NKG2D-Fc-biotin; not shown: human IgG1 Fc domain
T2 sequence (looked up): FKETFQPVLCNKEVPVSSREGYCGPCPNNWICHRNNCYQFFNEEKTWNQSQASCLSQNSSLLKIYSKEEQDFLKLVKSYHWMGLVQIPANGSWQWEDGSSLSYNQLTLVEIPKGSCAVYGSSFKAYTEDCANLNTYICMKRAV
Put plainly: competition ELISA: plate-bound mouse Rae-1 delta-Fc, mouse NKG2D-Fc-biotin in solution; blocked ligand Rae-1 delta. The procedure: Recombinant mouse Rae-1 delta-Fc (R&D Systems, Minneapolis, Minn.) was adsorbed to wells of a microplate, and the wells were blocked with bovine serum albumin to reduce non-specific binding. Mouse NKG2D-Fc-biotin was added to the wells followed by NKG2D-binding domains. After incubation and washing, NKG2D-Fc-biotin that remained bound to Rae-1delta-Fc coated wells was detected using streptavidin-HRP and TMB substrate. Absorbance was measured at 450 nm and corrected at […]. After subtracting background, specific binding of NKG2D-binding domains to the NKG2D-Fc proteins was calculated from the percentage of NKG2D-Fc-biotin that was blocked from binding to the Rae-1delta-Fc coated wells.

Experiment [3] addresses T2, recombinant mouse NKG2D-Fc fusion …. Put plainly: ELISA, plate-bound recombinant mouse NKG2D-Fc, anti-human kappa-HRP/TMB.
Description: as §1
For orientation: ELISA stands for enzyme-linked immunosorbent assay.

Experiment [4] concerns the target T3, recombinant human NKG2D-Fc fusion protein (human, UniProt P26718 73-216).
T3 construct: extracellular domain; also called NKG2D-Fc-biotin; not shown: human IgG1 Fc domain
T3 sequence (looked up): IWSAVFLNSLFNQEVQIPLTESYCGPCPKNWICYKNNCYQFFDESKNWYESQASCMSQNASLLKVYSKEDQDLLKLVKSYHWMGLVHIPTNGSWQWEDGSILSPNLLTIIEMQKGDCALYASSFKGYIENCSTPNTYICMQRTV
Put plainly: competition ELISA: plate-bound human NKG2D-Fc, saturating ULBP-6-His-biotin as blocked ligand, streptavidin-HRP. Here is the method: Recombinant human NKG2D-Fc proteins were adsorbed to wells of a microplate, and the wells were blocked with bovine serum albumin to reduce non-specific binding. A saturating concentration of ULBP-6-His-biotin was added to the wells, followed by addition of the NKG2D-binding domain clones. After a 2-hour incubation, wells were washed and ULBP-6-His-biotin that remained bound to the NKG2D-Fc coated wells was detected by streptavidin-conjugated to horseradish peroxidase and TMB substrate. Absorbance was measured at 450 nm and corrected at […]. After subtracting background, specific binding of NKG2D-binding domains to the NKG2D-Fc proteins was calculated from the percentage of ULBP-6-His-biotin that was blocked from binding to the NKG2D-Fc proteins in wells.

The target in experiment [5] is T3, recombinant human NKG2D-Fc fusion …. Put plainly: ELISA, plate-bound recombinant human NKG2D-Fc, anti-human kappa-HRP/TMB.
Description: as §1

B1: ADI-27740 (antibody, V domains shown)
VH: QVQLQQWGAGLLKPSETLSLTCAVYGGSFSGYYWSWIRQPPGKGLEWIGEIDHSGSTNYNPSLKSRVTISVDTSKNQFSLKLSSVTAADTAVYYCARARGPWSFDPWGQGTLVTVSS
VL: DIQMTQSPSTLSASVGDRVTITCRASQSIGSWLAWYQQKPGKAPKLLIYKASSLESGVPSRFSGSGSGTEFTLTISSLQPDDFATYYCQQYHSFYTFGGGTKVEIK
notes: also called A40
In the case of B1, the “EC50 (read off the curve)” value in experiment [1] was around 0.3 nM; in experiment [3], around 0.2 nM; in experiment [5] it was around 0.4 nM. The “IC50 (read off the curve)” value was around 20 nM in experiment [2] and around 6 nM in experiment [4].

B2: ADI-27743 (antibody, V domains shown)
VH: QVQLQQWGAGLLKPSETLSLTCAVYGGSFSGYYWSWIRQPPGKGLEWIGEIDHSGSTNYNPSLKSRVTISVDTSKNQFSLKLSSVTAADTAVYYCARARGPWSFDPWGQGTLVTVSS
VL: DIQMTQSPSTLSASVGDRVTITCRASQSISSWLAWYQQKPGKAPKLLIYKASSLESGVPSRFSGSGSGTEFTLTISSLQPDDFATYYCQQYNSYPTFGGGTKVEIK
For the molecule B2, the “EC50 (read off the curve)” value in experiment [1] is around 0.3 nM; in experiment [3] it was around 0.2 nM; in experiment [5] it was around 0.3 nM. The “IC50 (read off the curve)” value is around 20 nM in experiment [2] and around 2 nM in experiment [4].
